Reference: patent publication US9193755B1, “TFEB variants and uses thereof” (Fondazione Telethon, priority 2011, dated 2015)
Residue numbers refer to the chain shown, from its start. Names and notes keep the numbering of the source.

How the values were obtained:
[1] = test system: TFEB target genes; test: qPCR of TFEB target genes after transfection with normal and mutant TFEB plasmids; type: cell-based, human; conditions: 24 h post-transfection, compared to TFEB(WT), TFEB(S332A) and TFEB(S402A)
Excerpt: (§1) Asterisks in the graph indicate that the P-value was <0.05.

[2] = test system: HeLa cells; test: Subcellular localization and mobility of mutated TFEB-3xFlag in HeLa cells; type: cell-based, human; conditions: for TFEB subcellular localization of serine-to-alanine mutants: HeLa cells, Flag immunostaining
Description: Cells were transiently transfected with DNA plasmids pRK5-mycPAT1, pCEP4-TFEB-his, pC1G2-TFEB, and p3 x FLAG-CMVTFEB using lipofectamine2000 or LTX (Invitrogen) according to the protocol from manufacturer. Site-direct mutagenesis was performed according to the manufacturer instructions (Stratagene) verifying the correct mutagenesis by sequencing.
Cells were seeded at 50% of confluence in 6 well dishes and serum starved overnight (ON). Normal medium was added the following day either in presence of DMSO or kinase inhibitors. Subcellular fractionation was carried out as previously reported. Briefly, cells were lysed in 0.5 Triton X-100 lysis buffer (50 mM Tris-HCl, 0.5% triton, 137.5 mM NaCl, 10% glycerol, 5 mM EDTA supplemented with fresh protease and phosphatase inhibitors. Supernatant represented cytosolic fraction while nuclear pellet was washed twice and lysed in 0.5 Triton X-100 buffer 0.5% SDS and sonicated.

[3] = test system: HeLa cells; test: Autophagosome number / LC3II level in HeLa cells; type: cell-based, human
Excerpt: Cells or tissues were solubilized in RIPA buffer supplemented with protease (ROCHE) and Phosphatase (SIGMA) inhibitors. From 10 to 30 micrograms were loaded on 4-12% Bis-Tris gel (NUPAGE, Invitrogen), transferred to PVDF membranes and analyzed by western blot using the ECL method (Pierce). The following antibodies were used: LC3 (Novus Biological), FLAG, b-ACTIN, TUBULIN (SIGMA), HA (Covance), H3, ERK1/2, p-ERK1/2, p-AKT, p-70S6K (Cell Signaling), ERK2 (Santa Cruz). Protein levels were quantified by using ImageJ software analysis.

[4] = test system: MEFs, NSCs, HeLa, and COS-7 cells; test: Release of lysosomal enzymes in the culture medium; type: cell-based; conditions: TFEB overexpression; acid phosphatase, beta-galactosidase, beta-hexosaminidase
Description: Lysosomal enzymes acid phosphatase, beta-galactosidase, and beta-hexosaminidaseactivities were measured using the appropriate fluorimetric or colorimetric substrates. SGSH activity was measured following protocols described in Fraldi et al., Hum Mol Gen 2007 (33).

[5] = test system: HeLa cells stably expressing GFP-mRFP-LC3; test: RFP-GFP tandem tagged LC3 autophagosome-lysosome fusion assay; type: cell-based, human; conditions: TFEB overexpressing cells compared to control cells
[6] = test system: LSDs; conditions: TFEB overexpression (45); cited from earlier work
[7] = test system: long-lived proteins; test: Degradation of long-lived proteins; type: cell-based; conditions: TFEB overexpression
Description: Sub-confluent cells were incubated with L-U^14C-serine for 20 h and chased for 1 h with cold media to degrade short-lived proteins. Subsequently cells were incubated with either normal media or starvation media (eventually in the presence of 3-MA) for 4 h. The rate of long-lived protein degradation was calculated from the ratio of soluble radioactivity in the media to that insoluble in the acid-precipitable cell pellet.

[8] = test system: autophagy-related genes in HeLa cells; test: qPCR of autophagy-related genes in TFEB stable overexpressing HeLa cells; type: cell-based, human; conditions: TFEB stable overexpression
Excerpt: as §1

[9] = test system: mouse embryonic fibroblast (MEFs); test: Electron microscopy of MEFs infected with lentivirus overexpressing TFEB; type: cell-based
Description: Control and TFEB-overexpressing cells were washed with PBS, and fixed in 1% glutaraldehyde dissolved in 0.2 M Hepes buffer (pH 7.4) for 30 min at room temperature. The cells were then postfixed for 2 h in OsO4. After dehydration in graded series of ethanol, the cells were embedded in Epon 812 (Fluka) and polymerized at 60° C. for 72 h. Thin sections were cut at the Leica EM UC6, counterstained with uranyl acetate and lead citrate. EM images were acquired from thin sections using a Philips Tecnai-12 electron microscope equipped with an ULTRA VIEW CCD digital camera (Philips, Eindhoven, The Netherlands). Quantification of vacuolization was performed using the AnalySIS software (Soft Imaging Systems GmbH, Munster, Germany). Selection of cells for quantification was based on their suitability for stereologic analysis, i.e. only cells sectioned through their central region (detected on the basis of the presence of Golgi membranes) were analyzed.

B1: TFEB(S142A): TFEB variant with serine 142 mutated to alanine (protein, UniProt P19484 1-476, looked up, variant S142A)
Transcription factor EB: MASRIGLRMQLMREQAQQEEQRERMQQQAVMHYMQQQQQQQQQQLGGPPTPAINTPVHFQSPPPVPGEVLKVQSYLENPTSYHLQQSQHQKVREYLSETYGNKFAAHISPAQGSPKPPPAASPGVRAGHVLSSSAGNSAPNAPMAMLHIGSNPERELDDVIDNIMRLDDVLGYINPEMQMPNTLPLSSSHLNVYSSDPQVTASLVGVTSSSCPADLTQKRELTDAESRALAKERQKKDNHNLIERRRRFNINDRIKELGMLIPKANDLDVRWNKGTILKASVDYIRRMQKDLQKSRELENHSRRLEMTNKQLWLRIQELEMQARVHGLPTTSPSGMNMAELAQQVVKQELPSEEGPGEALMLGAEVPDPEPLPALPPQAPLPLPTQPPSPFHHLDFSHSLSFGGREDEGPPGYPEPLAPGHGSPFPSLSKKDLDLMLLDDSLLPLASDPLLSTMSPEASKASSRRSSFSMEEGDVL
modifications: 3xFlag tag
notes: TFEB variant with serine 142 mutated to alanine
expression levels of TFEB target genes [1]: increased expression levels | TFEB subcellular localization of serine-to-alanine mutants [2]: constitutive nuclear localization | nuclear localization of mutant TFEB ([2]; compared to TFEB(WT), TFEB(S332A) and TFEB(S402A)): significantly increased nuclear localization | induction of the autophagic/lysosomal system (autophagosomes, lysosomes, autophagolysosomes) ([3]; compared to wt TFEB): stronger induction

B2: TFEB S142D: phospho-mimetic mutant of TFEB (protein, UniProt P19484 1-476, looked up, variant S142D)
Transcription factor EB: B1 Transcription factor EB with A142D
modifications: 3xFlag tag
translocation into the nucleus upon nutrient starvation ([2]; nutrient starvation): unable to translocate into the nucleus

B3: S211A: TFEB with serine-to-alanine mutation at position 211 (protein, UniProt P19484 1-476, looked up, variant S211A)
Transcription factor EB: B1 Transcription factor EB with A142S, S211A
TFEB subcellular localization of serine-to-alanine mutants [2]: constitutive nuclear localization

B4: TFEB: transcription factor EB, Seq. Id No. 2, overexpressed from plasmid, lentivirus or stable clone (protein, listed as Homo sapiens)
chain: B1 Transcription factor EB with A142S
release of lysosomal enzymes in the culture medium [4]: increases the release of lysosomal enzymes | number of autophagolysosomes [5]: higher | substrate clearance and cellular vacuolization in LSDs [6]: able to promote substrate clearance and to rescue cellular vacuolization | degradation of long-lived proteins [7]: enhanced | AKT1 FOLD INCREASE [8]: 1.2 fold | AMBRA1 FOLD INCREASE [8]: 1.2 fold | APP FOLD INCREASE [8]: 1.4 fold | ARSA FOLD INCREASE [8]: 1.3 fold | ATG3 FOLD INCREASE [8]: 1.2 fold | ATG4A FOLD INCREASE [8]: 1.2 fold | ATG4B FOLD INCREASE [8]: 1.3 fold | ATG4C FOLD INCREASE [8]: 1.1 fold | ATG4D FOLD INCREASE [8]: 1.6 fold | ATG5 FOLD INCREASE [8]: 1.2 fold | ATG7 FOLD INCREASE [8]: 1.2 fold | ATG9A FOLD INCREASE [8]: 1.1 fold | ATG9B FOLD INCREASE [8]: 5.6 fold | ATG10 FOLD INCREASE [8]: 1.1 fold | ATG12 FOLD INCREASE [8]: 1.2 fold | ATG16L1 FOLD INCREASE [8]: −1.2 fold | ATG16L2 FOLD INCREASE [8]: 1.1 fold | BAD FOLD INCREASE [8]: 1.0 fold | BAK1 FOLD INCREASE [8]: 1.4 fold | BAX FOLD INCREASE [8]: 1.2 fold | BCL2 FOLD INCREASE [8]: 1.5 fold | BECN1 FOLD INCREASE [8]: 1.2 fold | BID FOLD INCREASE [8]: 1.2 fold | BNIP3 FOLD INCREASE [8]: 1.1 fold | CLN3 FOLD INCREASE [8]: 1.5 fold | CXCR4 FOLD INCREASE [8]: 1.3 fold | DRAM FOLD INCREASE [8]: 1.8 fold | EIF2AK3 FOLD INCREASE [8]: 1.4 fold | EIF4G1 FOLD INCREASE [8]: 1.3 fold | FAM176A FOLD INCREASE [8]: 1.6 fold | GAA FOLD INCREASE [8]: 1.3 fold | GABARAP FOLD INCREASE [8]: 1.1 fold | GABARAPL1 FOLD INCREASE [8]: 1.0 fold | GABARAPL2 FOLD INCREASE [8]: 1.1 fold | HGS FOLD INCREASE [8]: −1.1 fold | HTT FOLD INCREASE [8]: 1.0 fold | MAP1LC3A FOLD INCREASE [8]: 1.1 fold | MAP1LC3B FOLD INCREASE [8]: 1.2 fold | PIK3C3 FOLD INCREASE [8]: −1.2 fold | PIK3R4 FOLD INCREASE [8]: 1.1 fold | PTEN FOLD INCREASE [8]: 1.1 fold | RAB24 FOLD INCREASE [8]: 1.2 fold | RGS19 FOLD INCREASE [8]: 1.2 fold | SNCA FOLD INCREASE [8]: 1.6 fold | SQSTM1 FOLD INCREASE [8]: 2.4 fold | TP53 FOLD INCREASE [8]: 1.1 fold | ULK1 FOLD INCREASE [8]: 1.1 fold | UVRAG FOLD INCREASE [8]: 1.8 fold | VPS11 FOLD INCREASE [8]: 1.4 fold | VPS18 FOLD INCREASE [8]: 1.4 fold | WIPI FOLD INCREASE [8]: 2.5 fold | number of autophagosomes by electron microscopy [9]: An increase in the number of autophagosomes | number of autophagosomes (LC3 marker) ([3]; stable TFEB overexpression in HeLa cells): increased significantly
